The results in this text go back to patent publication US20160264662A1 (US Dept. of Health and Human Services, published 2016).

In the assay the target is T1, human TEM8 (hTEM8) expressed on CHO or 293 cells (human, UniProt Q9H6X2 33-564).
T1 construct: also called CHO TEM8
The assay is described as follows: cell-based ELISA-type titration of m825-MMAE on CHO cells overexpressing TEM8, with TEM8-negative CHO cells as control; absorbance at 450 nm against Log (ng/well). A general note: ELISA stands for enzyme-linked immunosorbent assay.

T1 sequence (Q9H6X2 33-564 limits assumed): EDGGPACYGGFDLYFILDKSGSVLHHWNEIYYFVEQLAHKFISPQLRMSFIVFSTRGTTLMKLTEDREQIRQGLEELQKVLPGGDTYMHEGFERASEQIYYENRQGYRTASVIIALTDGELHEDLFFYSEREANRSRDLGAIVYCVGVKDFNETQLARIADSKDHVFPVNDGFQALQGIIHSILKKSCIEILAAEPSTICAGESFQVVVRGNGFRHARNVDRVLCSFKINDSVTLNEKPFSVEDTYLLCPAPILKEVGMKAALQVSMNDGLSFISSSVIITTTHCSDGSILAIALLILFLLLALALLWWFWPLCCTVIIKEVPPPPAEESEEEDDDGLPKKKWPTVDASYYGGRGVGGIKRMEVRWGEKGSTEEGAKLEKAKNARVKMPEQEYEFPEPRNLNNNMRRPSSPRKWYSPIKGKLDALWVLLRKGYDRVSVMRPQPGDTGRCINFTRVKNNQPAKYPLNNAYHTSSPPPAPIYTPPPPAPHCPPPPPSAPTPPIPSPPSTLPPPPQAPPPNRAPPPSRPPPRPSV

B1: m825-MMAE conjugate (m825 antibody in human IgG1 format conjugated to MMAE) (other)
VH: QVQLVQSGAEVKKPGTSVKVSCKVPGYTFSSYAISWVRQAPGQGLEWMGGIIPIFGTTNYAQKFQGRVTITGEESTSTVYMELSSLRSEDTAVYYCARDTDYMFDYWGQGTLVTVSS
VL: SSELTQDPVVSVALGETVSITCQGDNLRDFYASWYQQKPGQAPLLVMYGKNRRPSGIPDRFSGSTSGNTLSLTITGAQAEDEADYYCSSRDNSKHVVFGGGTKVTVL
modifications: MMAE with stretcher unit, Val-Cit peptide cleavage site and spacer, attached to thiol groups formed by partial reduction of inter-chain disulfide bonds (positions not stated)
notes: also called anti-TEM8-MMAE
For B1, the “EC50 (read off the curve)” value was around 2 ng/well.
